From US20220098295A1 (ALLERGAN, published 2022)

Legend:
[1] = molecular target: T1, human PDGF-BB (R&D system, 220-BB) (human, UniProt P01127 82-190, biotinylated in the blocking ELISA of Example 4 (sites not given); unlabelled in the SPR assay); assay: blocking ELISA: HCAb dilutions with 2 nM biotinylated PDGF-BB, binding to coated PDGFRβ-Fc
T1 construct: Bought protein (R&D Systems), a homodimer of two B subunits; also called human biotinylated PDGF-BB
Protocol: Two micrograms per milliliter per well of PDGFRβ-Fc (R & D Systems) was coated on 96 well microtiter plates overnight at 4° C. In a separate plate, serial dilutions of anti-PDGF BB HCAb were incubated with 2 nM human biotinylated PDGF-BB (R&D Systems) for 1 hr. One hundred microliters of the anti-PDGF BB HCAb-PDGF-BB mix were applied to the PDGFRβ-Fc-coated microtiter plate for 1 hr. The detection antibody (anti-biotin HRP) was then added for 1 hr and the ELISA was developed with a chemiluminescent HRP substrate and read by an ELISA plate reader. Anti-PDGF BB HCAb blocked the binding of PDGF-BB to its receptor PDGFRβ and IC₅₀ of anti-PDGF BB HCAb blocking to PDGFRβ is summarized in Table 4.

[2] = molecular target: T1, human PDGF-BB (R&D system, 220-BB); assay: SPR (Biacore T200, 25 C), HCAb captured by anti-human IgG Fc, PDGF-BB as analyte
Protocol: (§1) Anti-human IgG Fc antibody was directly immobilized across CM5 biosensor chip (GE Healthcare) using a standard coupling kit (GE Healthcare, BR-1008-39) according to the manufacturer's instructions. Purified anti-PDGF-BB HCAb molecules were diluted in running buffer HBS-EPB (GE Healthcare, BR-1006-69) at 0.5 to 1.0 μg/ml and captured on the coupled across anti-human IgG Fc surface. A 2-fold serial dilution of human PDGF-BB (R&D system, 220-BB) range from 0.625 to 10 nM were injected over anti-PDGF-BB HCAb captured surface at a flow rate of 30 μl/min. Associating rates (Ka) and dissociation rates (Kd) were calculated based on 1:1 Langmuir binding model with BIAcore T200 evaluation software version 2.0 (GE Healthcare). The equilibrium dissociation constant (Kd) was determined by the ratio Koff/Kon.

[3] = molecular target: T1, human PDGF-BB (R&D system, 220-BB); assay: SPR (Biacore T200, 25 C), HCAb captured by anti-human IgG Fc, PDGF-BB 0.625-10 nM as analyte, 1:1 model
Protocol: as §1

[4] = molecular target: T1, human PDGF-BB (R&D system, 220-BB); assay: SPR (Biacore T200, 25 C), HCAb captured by anti-human IgG Fc, PDGF-BB as analyte; * over the limit of detection
Protocol: as §1

[5] = molecular target: T1, human PDGF-BB (R&D system, 220-BB); assay: Real-time sensorgram with response in nm (assay not given). Sample 'P36F3', association with rhPDGF BB at 25 - 500 nM. The column is headed kdis(1/s).
[6] = molecular target: T1, human PDGF-BB (R&D system, 220-BB); assay: Real-time sensorgram with response in nm (assay not given). Sample 'P36F3', association with rhPDGF BB at 25 - 500 nM.

T1 sequence (P01127 82-190 limits assumed): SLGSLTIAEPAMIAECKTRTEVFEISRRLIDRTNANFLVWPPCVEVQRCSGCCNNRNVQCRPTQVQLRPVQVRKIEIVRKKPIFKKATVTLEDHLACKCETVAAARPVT

B1: anti-PDGF BB HCAb P36E10 (antibody, IgG1, V domains shown)
VH: QVQLLESGGGLVQPGGSLRLSCAASGFTFSSYAMSWVRQAPGKGLEWVSAISGSGGSTYYADSVKGRFTISRDNSKNTLYLQMNSLRAEDTAVYYCASNSGFFTLSGFIRYKFWGQGTLVTVSS
notes: Heavy chain only antibody, no light chain; VH fused to IgG1 hinge and CH2/CH3; not shown: human IgG1 hinge region and CH2/CH3 regions (no CH1)
Q: With B1 as the binder, how does the IC50 [1] read?
A: The IC50 was 21.4 nM.

Q: What about the Kd [2] of the same binder?
A: The Kd was 0.455 nM.

Q: And the koff [2]?
A: The koff was 1.92e-05 s⁻¹.

Q: And the kon [3]?
A: The kon was 42100 M⁻¹ s⁻¹.

B2: anti-PDGF BB HCAb P36C12 (antibody, IgG1, V domains shown)
VH: QVQLLESGGGLVQPGGSLRLSCAASGFTFSSYAMSWVRQAPGKGLEWVSAISGSGGSTYYADSVKGRFTISRDNSKNTLYLQMNSLRAEDTAVYYCARNSEIFMVKGVIQYNSWGQGTLVTVSS
notes: Heavy chain only antibody, no light chain; VH fused to IgG1 hinge and CH2/CH3; It is printed in places as P36012, which looks like a misprint of P36C12; also called P36012; not shown: human IgG1 hinge region and CH2/CH3 regions (no CH1)
Q: What does the source list for B2?
A: IC50 [1]: 1.07 nM; kon [3]: 1e+06 M⁻¹ s⁻¹; Kd [4]: < 0.001 nM; koff [4]: < 1e-06 s⁻¹

B3: anti-PDGF BB HCAb P36A3 (antibody, V domains shown)
VH: QVQLLESGGGLVQPGGSLRLSCAASGFTFSSYAMSWVRQAPGKGLEWVSAISGSGGSTYYADSVKGRFTISRDNSKNTLYLQMNSLRAEDTAVYYCASNSVFSTLKGFLQYKFWGQGTLVTVSS
notes: Heavy chain only antibody, no light chain; VH fused to IgG1 hinge and CH2/CH3 and made in CHO cells as fully human recombinant HCAb; It was captured by anti-human IgG Fc in the SPR assay; not shown: human IgG1 hinge region and CH2/CH3 regions (no CH1)
Q: With B3 as the binder, how does the IC50 [1] read?
A: The IC50 was 7.75 nM.

Q: What about the kon [3] of the same binder?
A: Its kon is 219000 M⁻¹ s⁻¹.

Q: And the Kd [4]?
A: The Kd was less than 0.00457 nM.

Q: And the koff [4]?
A: Its koff is less than 1e-06 s⁻¹.

B4: anti-PDGF BB HCAb P36E8 (antibody, IgG1, V domains shown)
VH: QVQLLESGGGLVQPGGSLRLSCAASGFTFSSYAMSWVRQAPGKGLEWVSAISGSGGSTYYADSVKGRFTISRDNSKNTLYLQMNSLRAEDTAVYYCASNSELFKVNGVIRYDFWGQGTLVTVSS
notes: as for B1
Q: For B4, which IC50 [1] is on record?
A: The IC50 was 5.52 nM.

Q: And the kon [3]?
A: Its kon is 243000 M⁻¹ s⁻¹.

Q: And the Kd [4]?
A: The Kd was less than 0.00412 nM.

Q: And the koff [4]?
A: Its koff is less than 1e-06 s⁻¹.

B5: anti-PDGF BB HCAb P36A4 (antibody, IgG1, V domains shown)
VH: QVQLLESGGGLVQPGGSLRLSCPASGFTFSSYAMSWVRQAPGKGLEWVSAISGSGGSTYYADSVKGRFTISRDNSKNTLYLQMNSLRAEDTAVYYCARNNGIFMFRGVIRYKSWGQGTLVTVSS
notes: as for B1
Q: For B5, which IC50 [1] is on record?
A: Its IC50 is 3.77 nM.

Q: And the Kd [2]?
A: The Kd was 0.00179 nM.

Q: And the koff [2]?
A: The koff was 1.17e-06 s⁻¹.

Q: And the kon [3]?
A: The kon was 654000 M⁻¹ s⁻¹.

B6: P36F3 (bispecific antibody, part only; not given: linker, domain order, Fc, V domains shown, not shown: another chain or arm of the molecule; a dimerising Fc or GST; small tags and cut ends)
VH 1: QVQLVESGGGLVQPGGSLRLSCAASGFTFSSYWMHWVRQAPGKGLVWVSRINSDGSSTSYADSVKGRFTISRDNAKNTLYLQMNSLRAEDTAVYYCAKDKGITMVRGVIHFDYWGQGTLVTVSS
VH 2: QVQLVESGGGLVQPGGSLRLSCAASGFTFSSYWMHWVRQAPGKGLVWVSRINSDGSSTSYADSVKGRFTISRDNAKNTLYLQMNSLRAEDTAVYYCAREGYSSGGQFDYWGQGTLVTVSS
Q: How did the koff [5] turn out when B6 was run?
A: Its koff is 1.1e-06 s⁻¹.

Q: What about the Kd [6] of the same binder?
A: The Kd was 0.0434 nM.

Q: And the kon [6]?
A: The kon was 25300 M⁻¹ s⁻¹.

B7: anti-PDGF BB HCAb P36F3 (antibody, IgG1, V domains shown)
VH: QVQLVESGGGLVQPGGSLRLSCAASGFTFSSYWMHWVRQAPGKGLVWVSRINSDGSSTSYADSVKGRFTISRDNAKNTLYLQMNSLRAEDTAVYYCAKDKGITMVRGVIHFDYWGQGTLVTVSS
notes: as for B1
Q: Which results are given for B7?
A: IC50 [1]: 1.71 nM; Kd [2]: 0.00883 nM; koff [2]: 8.73e-06 s⁻¹; kon [3]: 988000 M⁻¹ s⁻¹
